Measured values from patent US12156920B2, “Double-labeled probe for molecular imaging and use thereof” (Deutsches Krebsforschungszentrum, priority 2017, dated 2024).

Columns and labels:
PSMA = target: T1, PSMA (Homo sapiens, UniProt Q04609); assay: Competitive cell binding assay on LNCaP cells (PSMA binding affinity); conditions: competition against 0.2 nM 68Ga-labeled PSMA-10
T1 construct: endogenous in cells; host or cells: LNCaP cells (ATCC CRL-1740)
Protocol: PSMA^+ LNCaP cells (ATCC CRL-1740) were cultured in RPMI medium supplemented with 10% fetal calf serum and 2 mmol/L L-glutamine (all from PAA). Cells were grown at 37° C. in humidified air with 5% CO2 and were harvested using trypsin-ethylenediaminetetraacetic acid (trypsin-EDTA; 0.25% trypsin, 0.02% EDTA, Invitrogen).
The competitive cell binding assay and internalization experiments were performed as described previously (4). Briefly, the cells (10^5 per well) were incubated with a 0.2 nM solution of ^68Ga-labeled radioligand [Glu-urea-Lys(Ahx)]2-HBED-CC (PSMA-10, precursor ordered from ABX, Radeberg, Germany) in the presence of 12 different concentrations of analyte (0-5000 nM, 100 μL/well). After incubation, the mixture was removed and the wells were washed 3 times with PBS using a multiscreen vacuum manifold (Millipore, Billerica, Mass.). Cell-bound radioactivity was measured using a gamma counter (Packard Cobra II, GMI, Minnesota, USA). The 50% inhibitory concentration (IC50) values were calculated by fitting the data using a nonlinear regression algorithm (GraphPad Software).

[1] = Biodistribution (organ distribution) of 68Ga-labeled compounds; type: in vivo, mice; conditions: male, BALB/c nu/nu, mouse, in vivo, iv, 60 pmol, total radioactivity
Protocol: (§1) The precursor peptides [1 nmol in HEPES buffer (580 mg/ml), 90 μL] were added to 40 μL [^68Ga]Ga^3+ eluate (˜40 MBq). The pH was adjusted to 3.8 using 30% NaOH and 10% NaOH, respectively. The reaction mixture was incubated at 98° C. for 10 minutes. The radiochemical yield (RCY) was determined by HPLC. For the experimental tumor models 5×10^6 cells of LNCaP (in 50% Matrigel; Becton Dickinson, Heidelberg, Germany) were subcutaneously inoculated into the right trunk of 7- to 8-week-old male BALB/c nu/nu mice (Charles River). The tumors were allowed to grow until approximately 1 cm^3 in size. The ^68Ga-labeled compounds were injected into a tail vein (1-2 MBq; 60 pmol). […] Organs of interest were dissected, blotted dry, and weighed. The radioactivity was measured using a gamma counter and calculated as % ID/g. All animal experiments complied with the current laws of the Federal Republic of Germany.

[2] = tested on: LNCaP-tumor bearing balb/c nu/nu mice; assay: as above; type: in vivo; conditions: mouse, in vivo
Protocol: as §1

[3] = Organ distribution Tumor (tumor accumulation)
[4] = Tumor-to-Organ ratio T/Intestine

T1 sequence (Q04609 whole entry): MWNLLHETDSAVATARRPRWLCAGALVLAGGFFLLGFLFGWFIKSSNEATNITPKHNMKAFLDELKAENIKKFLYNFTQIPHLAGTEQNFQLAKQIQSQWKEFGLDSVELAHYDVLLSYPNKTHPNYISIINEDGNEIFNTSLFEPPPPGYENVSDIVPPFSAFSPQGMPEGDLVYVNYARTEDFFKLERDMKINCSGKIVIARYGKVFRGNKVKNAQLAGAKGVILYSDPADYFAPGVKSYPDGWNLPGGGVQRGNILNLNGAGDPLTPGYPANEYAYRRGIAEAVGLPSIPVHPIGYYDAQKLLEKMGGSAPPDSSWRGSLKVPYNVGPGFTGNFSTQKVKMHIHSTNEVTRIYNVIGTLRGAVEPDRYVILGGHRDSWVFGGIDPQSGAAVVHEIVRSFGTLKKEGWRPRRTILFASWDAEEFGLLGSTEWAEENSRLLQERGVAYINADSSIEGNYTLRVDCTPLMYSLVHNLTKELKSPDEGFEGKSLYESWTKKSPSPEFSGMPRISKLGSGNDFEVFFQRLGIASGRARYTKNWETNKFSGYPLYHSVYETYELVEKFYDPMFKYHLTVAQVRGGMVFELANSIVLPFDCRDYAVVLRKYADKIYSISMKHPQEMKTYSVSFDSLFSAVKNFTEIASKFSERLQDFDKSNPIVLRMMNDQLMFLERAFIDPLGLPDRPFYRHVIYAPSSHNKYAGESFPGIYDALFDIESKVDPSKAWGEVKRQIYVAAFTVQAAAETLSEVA

Q: What does the source list for `CC1(C)C(/C=C/C2=C(Oc3ccc(S(=O)(=O)O)cc3)C(=C\C=C3/N(CCCCS(=O)(=O)O)c4ccc(S(=O)(=O)O)cc4C3(C)C)/CCC2)=[N+](CCCCCC(=O)NCCOCCOCCNC(=O)CCc2ccc(O)c(CN(CCN(CC(=O)O)Cc3cc(CCC(=O)NCc4cn(CCCCC(=O)N[C@@H](CCC(=O)O)C(=O)N[C@@H](Cc5cnc[nH]5)C(=O)N[C@@H](CCC(=O)O)C(=O)N[C@@H](Cc5cnc[nH]5)C(=O)N[C@@H](CCC(=O)O)C(=O)N[C@@H](Cc5cnc[nH]5)C(=O)NCCCC[C@H](NC(=O)N[C@@H](CCC(=O)O)C(=O)O)C(=O)O)nn4)ccc3O)CC(=O)O)c2)c2ccc(S(=O)(=O)O)cc21` [PSMA-(HE)3-HBED-CC-PEG2-IRDye800CW, Glu-urea-Lys-(HE)3-HBED-CC-PEG2-IRDye800CW]?
A: Ki (PSMA): 36.7 ± 9.77 nM; tissue uptake at 1 h ([1]; Organ distribution Blood): 1.12 %ID/g; tissue uptake at 2 h ([1]; Organ distribution Blood): 0.65 %ID/g; tissue uptake at 1 h ([1]; Organ distribution Brain): 0.18 %ID/g; tissue uptake at 2 h ([1]; Organ distribution Brain): 0.23 %ID/g; tissue uptake at 1 h ([1]; Organ distribution Heart): 1.36 %ID/g; tissue uptake at 2 h ([1]; Organ distribution Heart): 0.53 %ID/g; tissue uptake at 1 h ([1]; Organ distribution Intestine): 1.31 %ID/g; tissue uptake at 2 h ([1]; Organ distribution Intestine): 0.67 %ID/g; tissue uptake at 1 h ([1]; Organ distribution Kidney): 109 %ID/g; tissue uptake at 2 h ([1]; Organ distribution Kidney): 55.8 %ID/g; tissue uptake at 1 h ([1]; Organ distribution Liver): 1.25 %ID/g; tissue uptake at 2 h ([1]; Organ distribution Liver): 0.76 %ID/g; tissue uptake at 1 h ([1]; Organ distribution Lung): 2.34 %ID/g; tissue uptake at 2 h ([1]; Organ distribution Lung): 0.89 %ID/g; tissue uptake at 1 h ([1]; Organ distribution Muscle): 1.18 %ID/g; tissue uptake at 2 h ([1]; Organ distribution Muscle): 0.47 %ID/g; tissue uptake at 1 h ([1]; Organ distribution Spleen): 3.47 %ID/g; tissue uptake at 2 h ([1]; Organ distribution Spleen): 0.76 %ID/g; tissue uptake at 2 h ([1]; Organ distribution Tumor): 3.1 %ID/g; tissue uptake at 1 h [1, 3]: 7.59 %ID/g; tissue to tissue ratio at 1 h ([1]; Tumor-to-Organ ratio T/Blood): 6.8; tissue to tissue ratio at 1 h ([1]; Tumor-to-Organ ratio T/Brain): 42.6; tissue to tissue ratio at 1 h ([1]; Tumor-to-Organ ratio T/Heart): 5.57; tissue to tissue ratio at 1 h [1, 4]: 5.8; tissue to tissue ratio at 1 h ([1]; Tumor-to-Organ ratio T/Kidney): 0.07; tissue to tissue ratio at 1 h ([1]; Tumor-to-Organ ratio T/Liver): 6.08; tissue to tissue ratio at 1 h ([1]; Tumor-to-Organ ratio T/Lung): 3.24; tissue to tissue ratio at 1 h ([1]; Tumor-to-Organ ratio T/Muscle): 6.45; tissue to tissue ratio at 1 h ([1]; Tumor-to-Organ ratio T/Spleen): 2.19; Tumor-to-Organ ratio T/Blood [2]: 6.80; Tumor-to-Organ ratio T/Brain [2]: 42.63; Tumor-to-Organ ratio T/Heart [2]: 5.57; Tumor-to-Organ ratio T/Intestine [2]: 5.80; Tumor-to-Organ ratio T/Kidney [2]: 0.07; Tumor-to-Organ ratio T/Liver [2]: 6.08; Tumor-to-Organ ratio T/Lung [2]: 3.24; Tumor-to-Organ ratio T/Muscle [2]: 6.45; Tumor-to-Organ ratio T/Spleen [2]: 2.19

Q: Which results are given for `CC1(C)C(/C=C/C2=C(Oc3ccc(S(=O)(=O)O)cc3)C(=C\C=C3/N(CCCCS(=O)(=O)O)c4ccc(S(=O)(=O)O)cc4C3(C)C)/CCC2)=[N+](CCCCCC(=O)NCCOCCOCCNC(=O)CCc2ccc(O)c(CN(CCN(CC(=O)O)Cc3cc(CCC(=O)NCc4cn(CCCCC(=O)NC(CCC(=O)O)C(=O)NC(Cc5c[nH]c6ccccc56)C(=O)NCCCCC(NC(=O)NC(CCC(=O)O)C(=O)O)C(=O)O)nn4)ccc3O)CC(=O)O)c2)c2ccc(S(=O)(=O)O)cc21` (stereo not shown) [PSMA-(WE)1-HBED-CC-PEG2-IRDye800CW, Glu-urea-Lys-(WE)1-HBED-CC-PEG2-IRDye800CW]?
A: tissue uptake at 1 h ([1]; Organ distribution Blood): 1.61 %ID/g; tissue uptake at 1 h ([1]; Organ distribution Brain): 0.15 %ID/g; tissue uptake at 1 h ([1]; Organ distribution Heart): 1.49 %ID/g; tissue uptake at 1 h ([1]; Organ distribution Intestine): 0.96 %ID/g; tissue uptake at 1 h ([1]; Organ distribution Kidney): 105 %ID/g; tissue uptake at 1 h ([1]; Organ distribution Liver): 1.73 %ID/g; tissue uptake at 1 h ([1]; Organ distribution Lung): 2.57 %ID/g; tissue uptake at 1 h ([1]; Organ distribution Muscle): 1 %ID/g; tissue uptake at 1 h ([1]; Organ distribution Spleen): 12.9 %ID/g; tissue uptake at 1 h [1, 3]: 3.85 %ID/g; tissue to tissue ratio at 1 h ([1]; Tumor-to-Organ ratio T/Blood): 2.39; tissue to tissue ratio at 1 h ([1]; Tumor-to-Organ ratio T/Brain): 25.6; tissue to tissue ratio at 1 h ([1]; Tumor-to-Organ ratio T/Heart): 2.59; tissue to tissue ratio at 1 h [1, 4]: 4.01; tissue to tissue ratio at 1 h ([1]; Tumor-to-Organ ratio T/Kidney): 0.04; tissue to tissue ratio at 1 h ([1]; Tumor-to-Organ ratio T/Liver): 2.23; tissue to tissue ratio at 1 h ([1]; Tumor-to-Organ ratio T/Lung): 1.5; tissue to tissue ratio at 1 h ([1]; Tumor-to-Organ ratio T/Muscle): 3.86; tissue to tissue ratio at 1 h ([1]; Tumor-to-Organ ratio T/Spleen): 0.3
